Assay results as given in patent US20090130676A1 (GENERAL HOSPITAL, published 2009).

Tests used:
Assay in all cases: yeast interaction trap mating assay, lacZ reporter on Xgal
[1] = target: pep12 (FIG. 4B numbering), thioredoxin prey fusion (E. coli, UniProt P0AA25 1-35 = thioredoxin; P0AA25 34-109 = thioredoxin)
[2] = target: pep7 (FIG. 4B numbering), thioredoxin prey fusion (E. coli, UniProt P0AA25 1-35 = thioredoxin; P0AA25 34-109 = thioredoxin)
[3] = target: pep14 (FIG. 4B numbering), thioredoxin prey fusion (E. coli, UniProt P0AA25 1-35 = thioredoxin; P0AA25 34-109 = thioredoxin)
[4] = target: pep9 (FIG. 4B numbering), thioredoxin prey fusion (E. coli, UniProt P0AA25 1-35 = thioredoxin; P0AA25 34-109 = thioredoxin)
[5] = target: pep13 (FIG. 4B numbering), thioredoxin prey fusion (E. coli, UniProt P0AA25 1-35 = thioredoxin; P0AA25 34-109 = thioredoxin)
[6] = target: pep6 (FIG. 4B numbering), thioredoxin prey fusion (E. coli, UniProt P0AA25 1-35 = thioredoxin; P0AA25 34-109 = thioredoxin)

Measured: binding result

B1: Cdk7 (enzyme, not shown: small tags and cut ends)
chain: ALDVKSRAKRYEKLDFLGEGQFATVYKARDKNTNQIVAIKKIKLGHRSEAKDGINRTALREIKLLQELSHPNIIGLLDAFGHKSNISLVFDFMETDLEVIIKDNSLVLTPSHIKAYMLMTLQGLEYLHQHWILHRDLKPNNLLLDENGVLKLADFGLAKSFGSPNRAYTHQVVTRWYRAPELLFGARMYGVGVDMWAVGCILAELLLRVPFLPGDSDLDQLTRIFETLGTPTEEQWPDMCSLPDYVTFKSFPGIPLHHIFSAAGDDLLDLIQGLFLFNPCARITATQALKMKYFSNRPGPTPGCQLPRPNCPVETLKEQSNPALAIKRKRTEALEQGGLPKKLIF
notes: Bait strain named only on the sheet
no binding: all assays above
